The source of these data is paper doi:10.1101/2025.02.26.640373.

The test concerns the target SHP2^WT-TurboID (UniProt Q06124).

PD-1 pY248 phosphopeptide returned an in vitro phosphatase activity (initial velocity, RFU/s, DiFMUP substrate): +PD-1 pY248 over basal activity of 10 fold.
